Data on 2 molecules can be found in publication PMC10567711, “Structure-guided inhibition of the cancer DNA-mutating enzyme APOBEC3A”.

The target of data set [1] is T1, A3A-E72A (human, UniProt P31941 1-199, E72A). Kind of data set: X-ray crystallography; Zn2+; 3.15 A; one copy threaded with GACC loop; ITC: 50 mM Na+/K+ phosphate pH 6.0, 50 mM NaCl, 50 mM choline acetate, 2.5 mM TCEP, 200 uM EDTA, 30 mg/mL BSA, 25 C; NMR inhibition: 50 mM Na+/K+ phosphate pH 7.4, 100 mM NaCl, 1 mM TCEP, 100 uM DSS, 10% D2O, 20 C, 140 nM A3A. As to conditions: protein: recombinant; hairpin, 4 bp stem incl. one AT pair, 4-nt loop CTTC.
T1 sequence (P31941 whole entry E72A): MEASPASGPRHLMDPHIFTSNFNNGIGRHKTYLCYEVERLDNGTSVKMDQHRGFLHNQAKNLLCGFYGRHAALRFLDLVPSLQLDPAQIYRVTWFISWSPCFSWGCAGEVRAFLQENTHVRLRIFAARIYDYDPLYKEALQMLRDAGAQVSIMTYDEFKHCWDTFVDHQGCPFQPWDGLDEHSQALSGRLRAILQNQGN

Data set [2] has as its target T1, A3A-E72A. Kind of data set: X-ray crystallography; 1.91 A; Cl-; ITC: 50 mM Na+/K+ phosphate pH 6.0, 50 mM NaCl, 50 mM choline acetate, 2.5 mM TCEP, 200 uM EDTA, 30 mg/mL BSA, 25 C; NMR inhibition: 50 mM Na+/K+ phosphate pH 7.4, 100 mM NaCl, 1 mM TCEP, 100 uM DSS, 10% D2O, 20 C, 140 nM A3A. As to conditions: protein: recombinant; hairpin, potential 6 bp stem, 4-nt loop ATTC.

GCCACCTTCGTGGG (structured_DNA) [CTTC-hairpin]: the binding result with A3A-E72A [1] is “binds”.

Consider CCCATCATTCGATGGG (structured_DNA) [ATTC-hairpin], for which the binding result in the data set with A3A-E72A [2] is given as “binds”.
